These results are taken from patent US9347942B2, “Ultrasensitive cell based sensors and uses thereof” (CANVAX BIOTECH SL, priority 2010, dated 2016).

FAM = fluorophore of the FRET substrate

Assay [1] concerns the target T1, human granzyme B (Homo sapiens, UniProt P10144).
T1 construct: expressed in transfected cells; host or cells: supernatant of RBL-2H3 stably transfected with human granzyme B, treated with ionomycin
The assay can be described thus: Direct detection of secreted granzyme B with peptide substrates (Example 10). The class given is biochemical. Conditions: for signal to background: ionomycin 10 uM.
Experimental: Human granzyme B was used as a model enzyme. […] Cleavage of FAM-TAMRA labelled peptide was detected by fluorescence using excitation at 485 nm and emission at 535 nm and labelled peptide at 1 uM final concentration.
For each substrate the exocytosis of 50.000, 25.000, 12.500, 6.250, 3.125, 1560, 780 and 390 cells was analysed. Cells were seeded the night before experiment at the above densities in 96 well plates using 100 uL of complete cell culture medium per well. The day of experiment cells were washed with HBSS buffer and exocytosis was initiated by addition of ionomycin at 10 uM final concentration in HBSS buffer and incubation for 60 minutes at 37 Celsius degrees. Controls of cells treated with HBSS buffer only were included for basal release determination. Five replicas of each cell density for each substrate were seeded. Supernatant from cells were centrifuged at 400 g for 5 minutes and used for fluorescence determination in 96 well plates. Released AMC was measured by excitation at 360 nm and emission at 460 nm in a BMG Labtech microplate fluorimeter in 96 well microplates while released FAM was measured by excitation at 485 nm and emission at 535 nm in the same reader. Microplates were incubated at 37 Celsius degrees on the reader and were kinetically read at 0, 15, 30, 45 and 60 minutes. Control wells with substrate only in HBSS buffer were included to subtract autofluorescence of substrates to both cells treated with ionomycin and to cells treated with HBSS buffer only. An arbitrary signal to background of about two was selected as sensitivity.

The test system of assay [2] is RBL-2H3 cells. The assay can be described thus: Ionomycin-induced release of granule stored protease reporters from stable cell lines (Example 5). Conditions: stable RBL-2H3, 10 uM ionomycin 1 hour, supernatant equivalent to 100.000 cells, AMC substrate. The class given is cell-based, Rat. An excerpt:
As either tryptase-like enzymes, chymase-like enzymes, elastase-like enzymes or asp-ase like enzymes are useful for the methods of the present invention we selected human granzyme A (tryptase-like enzyme); human granzyme B (Asp-ase-like enzyme); human chymase (chymase-like enzyme) and human proteinase 3 (elastase-like enzyme) for further examples. Vectors were developed for stable expression of human granzyme A, human granzyme B, human chymase and human proteinase 3 under the control of hCMV-MoMLV5′LTR chimeric promoter. A hygromycin resistance cassette was included in the vector backbone for selection of stable populations of cells. The vector also included an IRES-NGFR cassette cloned downstream of granule stored protease reporter and thus, under the control of hCMV-MoMLV5′LTR promoter for flow cytometry and/or selection by MACS of stable cells expressing either human granzyme A or human granzyme B or human chymase or human proteinase 3. Each vector was individually electroporated using a microporator (Digital Bio Technology, South Korea) into RBL-2H3 and after 48 hours hygromycin at 1500 ug/mL was added to culture for selection. After selection for about 2 weeks cells were analysed by flow cytometry (Guava Technologies, USA) with an antibody against NGFR coupled to FITC. Positive population where magnetically separated by MACS using anti-NGFR-MACS sup.R (Miltenyi Biotec, Germany). Sorted populations were again analysed again by flow cytometry to check the sorting efficiency. Percentage of NGFR positive cells was always higher than 65 percent. Cells were seeded the night before experiment in 24 well microplates at 650.000 cells per well in 800 microliters of complete cell culture medium. Next day cells were washed with HBSS buffer and were treated with 10 uM ionomycin for 1 hour at 37 Celsius degrees in 200 uL of HBSS buffer and after centrifugation at 400 g for 5 minutes supernatants were analysed for activity with specific fluorescent substrates. Controls of cells incubated with HBSS buffer only were included. Fluorescent substrates were: VANR-AMC for granzyme A; PEEI-AMC for human neutrophil elastase; PTSY-AMC for human chymase; VADC-AMC for human proteinase 3 and IEPD-AMC for human granzyme B. Released AMC was measured by excitation at 360 nm and emission at 460 nm in a BMG Labtech microplate fluorimeter in 96 well microplates using 125 microliters of supernatant and 125 microliters of specific substrate at 400 micromol per liter in HBSS buffer. Microplates were incubated at 37 Celsius degrees on the reader and were kinetically read at 0, 15, 30, 45 and 60 minutes. Control wells with substrate only in HBSS buffer were included to subtract autofluorescence of substrates to both cells treated with ionomycin and to cells treated with HBSS buffer only. Autofluorescence of peptide substrates in HBSS buffer was about 3000 while fluorescence of cells treated with HBSS buffer only for 60 minutes at 37 Celsius degrees was about 5000, that is basal release in the absence of exocytosis modulator was about 2000. In contrast, fluorescence of ionomycin-induced release of human granzymes A and B was about 20.000 for a signal to background of 10 when using the supernatant equivalent to 100.000 cells; fluorescence of ionomycin-induced release of human chymase was about 30.000 for a signal to background of 15 when using the supernatant equivalent to 100.000 cells and fluorescence of ionomycin-induced release of human proteinase 3 was about 12.000 for a signal to background of 6 when using the supernatant equivalent to 100.000 cells. Thus, tryptase-like enzymes, chymase-like enzymes, elastase-like enzymes or asp-ase like enzymes can be stably expressed into granules of hemopoyetic cells with professional regulated exocytosis and such granule stored proteases are released by exocytosis modulators to produce sensors with good signal to background ratios using specific AMC-coupled peptide substrates. […]

Assay [3] has as its system RBL-2H3 cells. The assay can be described thus: Ionomycin-induced release of granzyme B from different species, stable cell lines (Example 6). Format: cell-based, Rat. The settings on record: 100.000 cells per well, 10 uM ionomycin 1 hour, IEPD-AMC. The text has this: This experiment was designed to test if granule stored protease reporters from other species different from human could be used for the methods of the present invention. As an example we selected granzyme B from different species. Vectors were developed for expression of human, rat, horse and chimpanzee granzyme B and RBL-2H3 cells were individually transfected with the plasmids comprising the chimeric promoter of hCMV-MoMLV5′LTR-GranzymeB-IRES-NGFR with hygromycin resistance for stable transfections. Each vector was individually electroporated using a microporator (Digital Bio Technology, South Korea) into RBL-2H3 and after 48 hours hygromycin at 1500 ug/ml_was added to culture for selection. After selection for about 2 weeks cells were analysed by flow cytometry (Guava Technologies, USA) with an antibody against NGFR coupled to FITC. Positive population where magnetically separated by MACS using anti-NGFR-MACS sup.R (Miltenyi Biotec, Germany). Sorted populations were again analysed again by flow cytometry to check the sorting efficiency. Percentage of NGFR positive cells was always higher than 65 percent. Cells were seeded the night before experiment in 96 well microplates at 100.000 cells per well in 100 microliters of medium. Next day cells were washed with BSS buffer and were treated with 10 uM ionomycin for 1 hour at 37 Celsius degrees in 105 uL of HBSS buffer and after centrifugation at 400 g for 5 minutes supernatants were analysed for activity with specific fluorescent substrates. Controls of cells incubated with HBSS buffer only were included. Fluorescent substrate was IEPD-AMC for all granzymes B tested. Released AMC was measured by excitation at 360 nm and emission at 460 nm in a BMG Labtech microplate fluorimeter in 96 well microplates using 105 microliters of supernatant and 145 microliters of specific substrate at 345 micromol per liter in HBSS buffer. Microplates were incubated at 37 Celsius degrees on the reader and were kinetically read at 0, 15, 30, 45 and 60 minutes. Control wells with substrate only in HBSS buffer were included to subtract autofluorescence of substrates to both cells treated with ionomycin and to cells treated with HBSS buffer only.

For assay [4], the target named is T1, human granzyme B. The assay can be described thus: Procaspase-3 zymogen activation by secreted granzyme B, DEVD-AMC readout (Example 11). Format: biochemical. The text has this:
As a model we selected human granzyme B. A human granzyme B activated-zymogen was developed from human native unmodified procaspase-3 (huCasp3) and from a mutated human procaspase-3 (mut-huCasp3) where the amino acids from 172 to 179 has been changed from […]to […] that is Threonine at 174 has been mutated to Proline because IEPD is a better granzyme B substrate than IETD and serine at 176 has been mutated to valine, glycine at 177 has been mutated to leucine, valine at 178 has been mutated to methionine and aspartic acid at 179 has been mutated to glutamic acid in order to both improve cleavage efficiency by human granzyme B and to reduce autoactivation of procaspase-3. cDNA from both variants of human pro-caspase-3 comprising amino acids from Serine at 29 to Aspartic acid at 192 were cloned into pET43a+ vector from Novagen. After sequencing expression vectors were transformed into BL21 DE3pLys E. coli strain for protein expression. Each protein was cloned with a polyhistidine tag at C-terminal end for purification. Human native procaspase-3 (huCasp3) was induced for only 30 minutes to prevent autoactivation, while mutated procaspase-3 (mut-huCasp3) was induced both for 30 minutes and for 2 hours. DEVD-AMC substrate was used for detection of active caspase-3 with excitation at 360 nm and emission at 460 nm. A supernatant equivalent to 15.000 RBL-2H3 stably transfected with human granzyme B treated with 10 uM ionomycin for 60 minutes was used for zymogen activation. Human granzyme B activity of such supernatant when measured with IEPD-AMC produced a signal to background of 2.6 after incubation for 60 minutes at 37 Celsius degrees using a supernatant equivalent to 25.000 cells. Background of fluorescence of DEVD-AMC substrate was 2775 and was subtracted from both granzyme B treated caspase-3 and non-granzyme B treated caspase-3 (caspase-3 only) used as control and all samples were tested by triplicate.

T1 sequence (P10144 21-247): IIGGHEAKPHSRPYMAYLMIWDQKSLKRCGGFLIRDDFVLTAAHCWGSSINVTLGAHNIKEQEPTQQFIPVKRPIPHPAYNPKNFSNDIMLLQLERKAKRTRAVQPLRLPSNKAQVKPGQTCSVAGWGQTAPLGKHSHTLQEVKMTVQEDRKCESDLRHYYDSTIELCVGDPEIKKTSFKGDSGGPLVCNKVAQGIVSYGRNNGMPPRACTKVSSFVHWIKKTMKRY

For the molecule “FAM-Ser-Ile-Glu-Pro-Asp-Ser-Gly-Ser-TAMRA ({FAM}-SIEPDSGS-{TAMRA}) [FAM-TAMRA peptide, custom designed FRET based granzyme B substrate]”, the signal to background in assay [1] (390 cells) is below 2; in assay [1] (780 cells), 3. For the same molecule, the “times more sensitive for detection of granzyme B than IEPD-AMC peptide” value in assay [1] (sensitivity taken as 780 cells) is “more than 30 times”.

On to “Human granzyme B: Asp-ase-like serine protease (GZMB, NM_004131) used as granule stored reporter”, for which, in assay [2], the “fluorescence of ionomycin-induced release” value is “about 20.000” and the signal to background turned out to be 10. Moreover, in assay [3], the “Fluorescence of supernatant from cells treated with ionomycin” value was 20,000 and the signal to background is 10.

B1: Native (unmodified) huCasp-3: human native unmodified procaspase-3 zymogen expressed in E. coli with polyhistidine tag (protein, UniProt P42574 1-277, looked up)
pro-form: MENTENSVDSKSIKNLEPKIIHGSESMDSGISLDNSYKMDYPEMGLCIIINNKNFHKSTGMTSRSGTDVDAANLRETFRNLKYEVRNKNDLTREEIVELMRDVSKEDHSKRSSFVCVLLSHGEEGIIFGTNGPVDLKKITNFFRGDRCRSLTGKPKLFIIQACRGTELDCGIETDSGVDDDMACHKIPVEADFLYAYSTAPGYYSWRNSKDGSWFIQSLCAMLKQYADKLEFMHILTRVNRKVATEFESFSFDATFHAKKQIPCIVSMLTKELYFYH
modifications: pro-form polyhistidine tag
notes: human native unmodified procaspase-3 zymogen expressed in E. coli with polyhistidine tag
With B1, the “times more sensitive than direct detection of secreted granzyme B with IEPD-AMC” value in assay [4] (15.000 cells versus 25.000 cells) is on record as “about 1.7 times”. Besides, the “Fluorescence of Caspase-3 only” value in assay [4] (no granzyme B, DEVD-AMC, background 2775 subtracted) is 15775. In addition, the “signal to background (S/B)” value in assay [4] (supernatant equivalent to 15.000 cells, DEVD-AMC) came out at 2.8. Besides, the “Fluorescence of caspase-3 treated with granzyme B” value in assay [4] (supernatant equivalent to 15.000 ionomycin treated cells, DEVD-AMC, background 2775 subtracted) worked out at 43548.

B2: Rat granzyme B: Granzyme B of rat (NM_138517) used as granule stored reporter (protein, UniProt P18291 21-248, looked up)
Granzyme B: IIGGHEAKPHSRPYMAYLQIMDEYSGSKKCGGFLIREDFVLTAAHCSGSKINVTLGAHNIKEQEKMQQIIPVVKIIPHPAYNSKTISNDIMLLKLKSKAKRSSAVKPLNLPRRNVKVKPGDVCYVAGWGKLGPMGKYSDTLQEVELTVQEDQKCESYLKNYFDKANEICAGDPKIKRASFRGDSGGPLVCKKVAAGIVSYGQNDGSTPRAFTKVSTFLSWIKKTMKKS
For the molecule B2, in assay [3], the “Fluorescence of supernatant from cells treated with ionomycin” value was 22,000 and the signal to background was determined as 11.
